Assay results taken from the supplement of paper PMC9233669.
This sample holds only a part of the variants without activity.

Legend:
biotinyl-Phe-oxazolone = test: self-aminoacylation, catalytic enhancement (BFO) (fold over background); higher = more active; k-Seq, kA / k0A0; sequences stand for … in GGGAAUGGAUCCACAUCUACGAAUUC…UUCACUGCAGACUUGACGAAGCUG
Summary of the method: (§1)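 Mutagenized RNA pools with a 21-nt variable region (0.43 μM) reacted with each biotinyl-aminoacyl-oxazolone at 2–1250 μM. Reactions ran in 50 μL HEPES/NaCl/KCl/MgCl2/CaCl2 buffer with 5% acetonitrile, pH 6.9–7.0, for 90 minutes at room temperature. Streptavidin-captured RNA was quantified by triplicate qPCR and Illumina sequencing, and per-sequence fraction reacted was fit to a pseudo-first-order model with 1000 bootstraps. Catalytic enhancement is median kA divided by the uncatalyzed rate, the low-activity peak of a bimodal Gaussian fit.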

biotinyl-Ile-oxazolone = test: self-aminoacylation, catalytic enhancement (BIO) (fold over background); higher = more active; k-Seq, kA / k0A0; sequences stand for … in GGGAAUGGAUCCACAUCUACGAAUUC…UUCACUGCAGACUUGACGAAGCUG
Summary of the method: as §1

biotinyl-Met-oxazolone = test: self-aminoacylation, catalytic enhancement (BMO) (fold over background); higher = more active; k-Seq, kA / k0A0; sequences stand for … in GGGAAUGGAUCCACAUCUACGAAUUC…UUCACUGCAGACUUGACGAAGCUG
Summary of the method: as §1

biotinyl-Val-oxazolone = test: self-aminoacylation, catalytic enhancement (BVO) (fold over background); higher = more active; k-Seq, kA / k0A0; sequences stand for … in GGGAAUGGAUCCACAUCUACGAAUUC…UUCACUGCAGACUUGACGAAGCUG
Summary of the method: as §1

biotinyl-Leu-oxazolone = test: self-aminoacylation, catalytic enhancement (BLO) (fold over background); higher = more active; k-Seq, kA / k0A0; sequences stand for … in GGGAAUGGAUCCACAUCUACGAAUUC…UUCACUGCAGACUUGACGAAGCUG
Summary of the method: as §1

biotinyl-Trp-oxazolone = test: self-aminoacylation, catalytic enhancement (BWO) (fold over background); higher = more active; k-Seq, kA / k0A0; sequences stand for … in GGGAAUGGAUCCACAUCUACGAAUUC…UUCACUGCAGACUUGACGAAGCUG
Summary of the method: as §1

| Sequence | self-aminoacylation (biotinyl-Phe-oxazolone) | self-aminoacylation (biotinyl-Ile-oxazolone) | self-aminoacylation (biotinyl-Met-oxazolone) | self-aminoacylation (biotinyl-Val-oxazolone) | self-aminoacylation (biotinyl-Leu-oxazolone) | self-aminoacylation (biotinyl-Trp-oxazolone) |
| --- | --- | --- | --- | --- | --- | --- |
| ACACACUUCAAGCAUUCGGUC [Fam1B.1 aminoacylation ribozyme variant] | 1.5 | 1.81 | 1.68 | 1.87 | 1.8 | 2.13 |
| ACUACCCUGGUCAUUGAGUGA [Fam2.1 aminoacylation ribozyme variant] | 34 | 4.12 | 7.75 | 4.05 | 8.8 | 8.89 |
| AUUAACCUGGUCACCGAGUGA [Fam2.1 aminoacylation ribozyme variant] | 40.8 | 3.88 | 6.76 | 3.69 | 8.22 | 7.92 |
| CUUCACGUAGGUCAUCGGGUG [Fam2.2 aminoacylation ribozyme variant] | 36.6 | 3.59 | 4.38 | 4.16 | 4.22 | 4.63 |
| ACGUUUACUAAUAGUCGCAAG [Fam3.1 aminoacylation ribozyme variant] | 2.57 | 1.56 | 1.35 | 1.53 | 1.8 | 1.41 |
| CCACACCUCAAGCAAUCGGUU [Fam1B.1 aminoacylation ribozyme variant] | 0.882 | 1.43 | 1.14 | 2.1 | 1.98 | 1.57 |
| CCACCCUUCAAGCAAUCGGUA [Fam1B.1 aminoacylation ribozyme variant] | 0.981 | 1.4 | 1.38 | 1.6 | 1.59 | 2.06 |
| AUUACCCAGGUCAUCGCGUGA [Fam2.1 aminoacylation ribozyme variant] | 156 | 8.22 | 20.3 | 10.3 | 22.9 | 19.3 |
| AAGUUUGCUAACAGUCGCACG [Fam3.1 aminoacylation ribozyme variant] | 1.65 | 0.921 | 1.19 | 1.18 | 0.745 | 0.973 |
| AUUACCCUGGUCAGCGAGUAA [Fam2.1 aminoacylation ribozyme variant] | 0.633 | 1.19 | 1.48 | 1.27 | 1.14 | 0.914 |
| AAGUUUGCUAAUAGUCACAAU [Fam3.1 aminoacylation ribozyme variant] | 1.14 | 1.18 | 1.18 | 1.19 | 0.82 | 1.11 |
| CGACUUCAUACAAUCGGUCUG [Fam1A.1 aminoacylation ribozyme variant] | 1.01 | 0.939 | 0.796 | 0.904 | 0.738 | 0.879 |
| CUAGUUCUAACAAUCGGUCUG [Fam1A.1 aminoacylation ribozyme variant] | 0.672 | 0.831 | 0.762 | 0.762 | 0.849 | 0.588 |
| AUUCACCUAGGUCAGCCGGUG [Fam2.2 aminoacylation ribozyme variant] | 61.6 | 5.17 | 7.35 | 5.3 | 11.3 | 6.47 |
| CCAGACUUCAAGCAAUCGGUC [Fam1B.1 aminoacylation ribozyme variant] | 43.9 | 1.45 | 1.42 | 1.54 | 2.04 | 26 |
| AUUCACCUAGAUCAUCUGGUG [Fam2.2 aminoacylation ribozyme variant] | 14.8 | 1.71 | 2.39 | 1.73 | 2.82 | 2.21 |
| ACGUUUGCUAAUAGGCGCAAG [Fam3.1 aminoacylation ribozyme variant] | 5.88 | 1.94 | 1.35 | 1.61 | 1.67 | 0.911 |
| CUACUUCACACAACCGGUCUG [Fam1A.1 aminoacylation ribozyme variant] | 1.07 | 0.858 | 1.2 | 1.01 | 0.892 | 0.778 |
| ACUACCCUGCUCAUCGAGUGA [Fam2.1 aminoacylation ribozyme variant] | 2.39 | 1.37 | 1.45 | 1.85 | 2.44 | 1.93 |
| AUUACACUGGUCACCGAGUGA [Fam2.1 aminoacylation ribozyme variant] | 24.5 | 2.95 | 5.29 | 2.91 | 5.41 | 7.35 |
| CCUCACUUGAAGCAAUCGGUC [Fam1B.1 aminoacylation ribozyme variant] | 0.809 | 0.636 | 0.679 | 0.678 | 0.607 | 0.664 |
| CCACACUGCAAGCGAUCGGUC [Fam1B.1 aminoacylation ribozyme variant] | 1.13 | 1.27 | 1.19 | 1.57 | 1.15 | 1.43 |
| ACACACUUCAAGCAAUUGGUC [Fam1B.1 aminoacylation ribozyme variant] | 1.61 | 1.09 | 1.01 | 1.17 | 0.945 | 1.29 |
| AUUACCCUGGUCUACGAGUGA [Fam2.1 aminoacylation ribozyme variant] | 25.5 | 3.67 | 6.17 | 3.68 | 6.37 | 7.19 |
| ACGUUUGCUAAUAGUCGAAAG [Fam3.1 aminoacylation ribozyme variant] | 5.96 | 1.37 | 1.58 | 1.24 | 1.09 | 2.68 |
| CCACACUUCAAGCGAUCGGGC [Fam1B.1 aminoacylation ribozyme variant] | 1.07 | 2.4 | 2.65 | 2.89 | 1.64 | 3.13 |

| Sequence | self-aminoacylation (biotinyl-Phe-oxazolone) | self-aminoacylation (biotinyl-Ile-oxazolone) | self-aminoacylation (biotinyl-Met-oxazolone) | self-aminoacylation (biotinyl-Val-oxazolone) | self-aminoacylation (biotinyl-Leu-oxazolone) | self-aminoacylation (biotinyl-Trp-oxazolone) |
| --- | --- | --- | --- | --- | --- | --- |
| CCCCACUUCAAGCACUCGGUC [Fam1B.1 aminoacylation ribozyme variant] | 11 | 2.26 | 2.79 | 2.79 | 3.08 | 4.4 |
| AUUAACCUAAGUCAUCGGGUG [Fam2.2 aminoacylation ribozyme variant] | 63.5 | 4.9 | 8.41 | 4.74 | 12.1 | 7.95 |
| AAUAUUGCUAAUAGUCGCAAG [Fam3.1 aminoacylation ribozyme variant] | 2.4 | 1.86 | 1.68 | 1.76 | 1.7 | 1.95 |
| CCGCAAUUCAAGCAAUCGGUC [Fam1B.1 aminoacylation ribozyme variant] | 18.7 | 1.94 | 1.73 | 2.12 | 1.9 | 14.2 |
| AUUACCCUGGGCAUCGAGUCA [Fam2.1 aminoacylation ribozyme variant] | 0.615 | 0.946 | 0.719 | 0.768 | 0.72 | 0.708 |
| CUACAAUUCAAGCAAUCGGUC [Fam1B.1 aminoacylation ribozyme variant] | 2.71 | 0.902 | 0.819 | 0.779 | 0.75 | 1.61 |
| CUAUUUCAAACAUUCGGUCUG [Fam1A.1 aminoacylation ribozyme variant] | 0.835 | 1.18 | 1.3 | 1.3 | 1.16 | 1.16 |
| AUACACCUAGGUCAUGGGGUG [Fam2.2 aminoacylation ribozyme variant] | 18.6 | 2.52 | 3.51 | 2.26 | 3.49 | 3.4 |
| AUUACCCUGGUCAUCGCGUGA [Fam2.1 aminoacylation ribozyme variant] | 139 | 8.09 | 18.3 | 9.74 | 20.3 | 20.1 |
| AUUACGCUGGUCAUCGGGUGA [Fam2.1 aminoacylation ribozyme variant] | 60.9 | 6.21 | 8.98 | 7.46 | 7.84 | 9.36 |
| CUACUUCAAACAAUCAGUCCG [Fam1A.1 aminoacylation ribozyme variant] | 10.8 | 0.632 | 0.753 | 0.783 | 0.623 | 4.05 |
| AUUCUCCCAGGUCAUCGGGUG [Fam2.2 aminoacylation ribozyme variant] | 90 | 6.87 | 10.2 | 6.91 | 12.8 | 9.06 |
| CUACUUCAAACAAUCGGACUU [Fam1A.1 aminoacylation ribozyme variant] | 1.04 | 0.788 | 0.737 | 0.85 | 0.665 | 1.07 |
| AUUACCCUGGUUGUCGAGUGA [Fam2.1 aminoacylation ribozyme variant] | 1.97 | 1.38 | 1.91 | 1.33 | 1.85 | 3.23 |
| CCACAUUUCAAGCGAUCGGUC [Fam1B.1 aminoacylation ribozyme variant] | 1.52 | 1.54 | 1.31 | 1.64 | 1.62 | 1.16 |
| CUAGUUCAAAAAAUCGGUCUG [Fam1A.1 aminoacylation ribozyme variant] | 2.72 | 0.934 | 0.842 | 0.752 | 0.838 | 2.08 |
| UGACUUCAAACAAUCGGUCUG [Fam1A.1 aminoacylation ribozyme variant] | 96.8 | 1.73 | 2.05 | 1.73 | 2.53 | 39.2 |
| AUUUCCCUGAUCAUCGAGUGA [Fam2.1 aminoacylation ribozyme variant] | 18.5 | 3 | 6.25 | 3.27 | 5.98 | 7.61 |
| AUCACCCUGGUCAUCCAGUGA [Fam2.1 aminoacylation ribozyme variant] | 41.2 | 4.34 | 6.56 | 3.61 | 7.91 | 6.77 |
| AUUCACCUAUAUCAUCGGGUG [Fam2.2 aminoacylation ribozyme variant] | 32.7 | 2.84 | 4.73 | 2.56 | 6.53 | 4.4 |
| CCACUUCAGACAAUCGGUCUG [Fam1A.1 aminoacylation ribozyme variant] | 1.67 | 1.62 | 1.66 | 1.65 | 1.33 | 1.71 |
| GUUACCAUGGUCAUCGAGUGA [Fam2.1 aminoacylation ribozyme variant] | 28.3 | 5.01 | 8.11 | 5.22 | 9.59 | 10.3 |
| CAACUUCAAACAAUCGGACUG [Fam1A.1 aminoacylation ribozyme variant] | 19.2 | 1.26 | 0.952 | 0.945 | 1.41 | 10.6 |
| ACUACCCUGGGCAUCGAGUGA [Fam2.1 aminoacylation ribozyme variant] | 41.4 | 3.65 | 7.11 | 4.49 | 7.95 | 6.86 |
| CCACACUUCAAGCAAUCGGAA [Fam1B.1 aminoacylation ribozyme variant] | 1.81 | 1.45 | 1.42 | 1.51 | 2.04 | 1.18 |
